Results published in publication PMC12246617, “Cryo-EM structures reveal the PP2A–B55α and Eya3 interaction that can be disrupted by a peptide inhibitor” (The Journal of Biological Chemistry, 2025).

Target: His-hB55 (human PP2A regulatory subunit B55α) (human) (UniProt P63151)
Assay: MST; His-B55 labelled with RED-Tris-NTA dye, added to serial dilutions of mEya3 (wild type or mutant) in PBS with 0.05% Tween-20; Monolith NT.115 Pico

Chain of His-hB55 (human PP2A regulatory subunit B55α) (human) (P63151 whole entry): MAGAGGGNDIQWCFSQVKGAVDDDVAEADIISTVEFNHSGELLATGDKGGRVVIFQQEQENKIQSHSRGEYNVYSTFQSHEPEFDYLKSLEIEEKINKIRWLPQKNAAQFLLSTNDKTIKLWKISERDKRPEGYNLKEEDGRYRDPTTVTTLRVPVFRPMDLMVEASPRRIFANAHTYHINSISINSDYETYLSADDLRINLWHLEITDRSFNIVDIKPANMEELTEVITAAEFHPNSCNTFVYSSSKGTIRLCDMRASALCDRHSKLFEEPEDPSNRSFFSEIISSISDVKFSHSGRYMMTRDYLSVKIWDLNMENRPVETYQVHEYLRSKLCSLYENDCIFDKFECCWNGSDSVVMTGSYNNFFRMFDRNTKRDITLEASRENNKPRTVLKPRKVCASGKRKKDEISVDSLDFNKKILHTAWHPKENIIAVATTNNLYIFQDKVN

Kd: 1.04 µM
Substance: mouse Eya3 (mEya3), wild type (from UniProt P97480 1-510) (natural protein)
